The values below come from US10465005B2, “JAML specific binding agents, antibodies, and uses related thereto” (Emory University, priority 2011, dated 2019).

Entries after “also recorded” stand apart in the source; their conditions may differ.

Test [1] relates to T84 monolayers. Description: Epithelial barrier recovery after calcium switch (TER, dextran flux). Type of test: cell-based, human. The conditions noted are these: for epithelial barrier recovery (TER) after calcium depletion: 30 μg/ml, 20 m/ml, up to 24 hours, FIG. 9A. As to the method:
T84 monolayers grown on permeable supports were subjected to transient calcium depletion by preincubation in Ca2+ free buffer (PBS) for 40 min to disassemble tight junctions, followed by switching back to calcium containing medium without (No Tx), or with sJAML or a control recombinant IgSF protein sSIRPa (30 μg/ml). Barrier recovery was measured as transepithelial resistance (TER) at time points as indicated.
FIG. 9B. Flux of fluorescently labeled dextran (3 k) was measured at the 24 h time point for conditions as described in panel A. N=4.
Since CAR plays a role in epithelial barrier, the effect of soluble JAML on epithelial barrier recovery was tested. Transepithelial resistance (TER) recovery experiments and dextran flux assay were performed with T84 cells grown in transwells (FIG. 9) as well as with Caco2 cells. […] As a negative control, a related soluble IgSF molecule SIRPalpha had no effect.

Test [2] concerns the target T1, epithelial CAR on T84 monolayers (Homo sapiens, UniProt P78310).
T1 construct: endogenous in cells; host or cells: T84
T1 sequence (P78310 20-365): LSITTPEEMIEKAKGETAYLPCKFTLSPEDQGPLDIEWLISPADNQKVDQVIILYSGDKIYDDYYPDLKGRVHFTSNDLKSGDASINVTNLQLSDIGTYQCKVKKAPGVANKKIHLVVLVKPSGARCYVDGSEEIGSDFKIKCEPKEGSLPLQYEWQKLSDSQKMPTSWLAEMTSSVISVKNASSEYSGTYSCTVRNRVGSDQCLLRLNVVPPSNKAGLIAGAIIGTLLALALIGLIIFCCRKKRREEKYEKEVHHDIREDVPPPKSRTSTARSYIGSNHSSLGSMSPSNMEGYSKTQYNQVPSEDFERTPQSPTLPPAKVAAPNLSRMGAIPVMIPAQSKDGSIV
Description: Soluble JAML binding to epithelial CAR, immunofluorescence. Format: cell-based. The conditions noted are these: sJAML 20 μg/ml, 1 h at 37° C. after 20 min Ca2+ free buffer; FIG. 7D. The method, then: FIG. 7D. T84 monolayers were subjected to transient calcium depletion by preincubation in Ca^2+ free buffer (PBS) for 20 min to increase access to tight junctions, were incubated with sJAML (20 μg/ml) for 1 h at 37° C. […] The scale bar is 20 μm.
As it has been established that epithelial CAR is the ligand for JAML on PMN. Whether shed JAML, as well as the recombinant protein could bind to CAR was investigated. To do this, CHO cells stably expressing CAR protein (CHO-CAR) were incubated with either supernatants from PMA activated differentiated PLB-985 (that release high levels of soluble JAML upon activation, (FIG. 2)), or recombinant soluble JAML and stained with DW216 to detect bound JAML. […] The same observation was verified by IF (FIG. 7B). […] The calcium depletion disrupts intercellular junctions of the epithelium and allows for better penetration of soluble JAML.

Test [3] deals with T2, CHO-JAML-His and CHO JAML-6xMyc (Homo sapiens, UniProt Q86YT9).
T2 construct: 6xMyc (cell line CHO JAML-6xMyc); expressed in transfected cells
T2 sequence (Q86YT9 20-394): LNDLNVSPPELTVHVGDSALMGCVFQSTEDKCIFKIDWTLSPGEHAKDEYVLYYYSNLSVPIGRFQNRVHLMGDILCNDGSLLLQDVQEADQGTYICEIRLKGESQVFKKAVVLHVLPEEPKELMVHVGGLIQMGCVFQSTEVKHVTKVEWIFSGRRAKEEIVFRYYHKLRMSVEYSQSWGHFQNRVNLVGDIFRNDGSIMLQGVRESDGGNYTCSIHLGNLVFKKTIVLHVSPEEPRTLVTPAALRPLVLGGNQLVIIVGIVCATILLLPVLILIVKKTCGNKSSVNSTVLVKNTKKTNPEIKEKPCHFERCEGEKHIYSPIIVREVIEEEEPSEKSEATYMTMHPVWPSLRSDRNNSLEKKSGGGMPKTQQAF
Description: FACS staining of stably transfected CHO-JAML cell lines. The conditions noted are these: FIG. 1A. Type of test: binding. From the text: BALB/c mice were immunized with recombinant soluble fragment of JAML.D1D2 tagged with 10 His residues at the C-terminus (sJAML-His), generated in H293T cells and purified by Nickel chromatography. After the 4th boost, mice were given a final immunization and, 3 days later, spleen cells harvested and fused to the myeloma cell line P3U1. Hybridomas were selected in HAT medium and supernatants of clones were subjected to screening first to immobilized, soluble JAML and followed by staining of CHO-JAML stable transfectants. Three hybridomas were selected and antibodies were purified from ascites. FACS staining profiles of mAbs using two different, stably transfected CHO-JAML cell lines, CHO-JAML-His and CHO JAML-6xMyc, both membrane bound and tagged at the C-terminus with either 10-His or 6xMyc. Control antibody is 9E10 anti Myc.
These hybridomas were further tested for reactivity against tagged, full-length JAML expressed on the surface of cultured cells. CHO-JAML-6XMyc transfectants were aliquoted and pelleted into round bottom 96 well plates. 100 μl hybridoma supernatants were added for 1 hr at 4° C. Cells were washed and positive wells were identified by FACS analysis using Goat anti Mouse-AlexaFluor 488. Cells from positive wells were cloned by limiting dilution at one cell per well and expanded first in DMEM-10% FBS containing HAT then in medium containing HT (ATCC) and later DMEM, 10% FBS. The cloned cells of interest were sent to Harlan Laboratories (Indianapolis, Ind.) for production of ascites. Antibodies were purified from ascitic fluid using proteinA-Sepharose (GE Healthcare) followed by dialysis against PBS. Aliquots were frozen at −80° C. Ig subclass of each antibody was determined by using the IsoStrip Mouse Monoclonal Antibody Isotyping Kit (Roche Applied Science). […]
Cells suspensions of adherent cells were prepared by trypsinization with Trypsin-EDTA (Sigma). […] After final washes, cells were analyzed using FACS Calibur. […] All samples were stained for JAML (DW100 mAb) and CD11b/CD18 (CBRM 1/29), and only CD11b/CD18 positive cells (PMNs) were analyzed for JAML expression.

B1: sJAML: recombinant soluble fragment of JAML.D1D2 tagged with 10 His residues at the C-terminus (protein)
chain: LNDLNVSPPELTVHVGDSALMGCVFQSTEDKCIFKIDWTLSPGEHAKDEYVLYYYSNLSVPIGRFQNRVHLMGDILCNDGSLLLQDVQEADQGTYICEIRLKGESQVFKKAVVLHVLPEEPKELMVHVGGLIQMGCVFQSTEVKHVTKVEWIFSGRRAKEEIVFRYYHKLRMSVEYSQSWGHFQNRVNLVGDIFRNDGSIMLQGVRESDGGNYTCSIHLGNLVFKKTIVLHVSPEEPRTL
With B1, the “epithelial barrier recovery (TER) after calcium depletion” value in test [1] (listed as Soluble JAML) was “decreased epithelial barrier recovery; also recorded: delayed both epithelial barrier recovery and wound restitution”; in test [1] (listed as soluble JAML), “significantly impaired the recovery of epithelial barrier”. Moreover, the “flux of fluorescently labeled dextran (3 k)” value in test [1] (24 h time point, FIG. 9B) is on record as “increased dextran flux”. The “JAML labeling versus CAR staining on T84 monolayers” value in test [2] is given as “highly colocalizes with staining of CAR”.

B2: DW100: monoclonal anti-human JAML antibody (IgG1,κ), hybridoma ATCC PTA-13051; VH SEQ ID NO:19, VL SEQ ID NO:22 (antibody, V domains shown)
VH: DVQLVESGAELVRPGASKLSCKALAYTFTDYEMHWVKQTPVHGLEWIGIIHPGSGGTVYNQKFKGKATLTADKSSSTAYMELSSLTSEDSTVYYCTRRRYYGSSYNWYFDVWGAGN
VL: VLTQSPASLAASVGETVTITCRASENIYYSLAWYQQKQGKSPQLLIYNANSLEDGVPSRFSGSGSGTQYSLKINSMQPEDTATYFCEQTYDVPLTFGAGTKLEL
B2: the “FACS staining of CHO-JAML transfectant lines” value in test [3] is listed as “stained both transfectant lines equally well”.
